Results from publication doi:10.1101/2020.04.16.045526.

B1: HapR BS 1 probe (32 bp) (dsDNA)
DNA 1: TAGGTTTGTTAGTGTTTACTTACTTATTTGGC
DNA 2: GCCAAATAAGTAAGTAAACACTAACAAACCTA
modifications: Cy5-dCTP added to the 3' end of one strand by TdT (strand not stated)
B2: HapR BS 2 probe (32 bp) (dsDNA)
DNA 1: AATTGCAATTGATAAATTTCTTGGCTAGGTGT
DNA 2: ACACCTAGCCAAGAAATTTATCAATTGCAATT
modifications: Cy5-dCTP added to the 3' end of one strand by TdT (strand not stated)

Target: HapR (Vibrio cholerae E7946 (El Tor), UniProt Q4F6W7 1-203)
Assay: EMSA

| Binder | binding result |
| --- | --- |
| B1 | binds |
| B2 | binds |
